Experiments:
[1] = tested on: Nurr1-c42-derived dopaminergic neurons; experiment: Response of TH positive c42 cells in co-culture to neurotrophic factors; type: cell-based, mouse; settings: 9 DIV, after SR11237 and bFGF induction; for neuritogenesis and/or hypertrophy: BDNF 30 ng/ml, CNTF 10 ng/ml, GDNF 10 ng/ml
Experimental: (§1) C17.2 neural stem cells (Snyder, E. Y. et al. Cell 68, 33-51 (1992)) were maintained and passaged as previously described (Snyder, E. Y. et al. Cell 68, 33-51 (1992)). Ventral mesencephala from E16 rat embryos were dissected, mechanically dissociated and plated at a final density of 1×10^5 cells/cm^2 on poly-D-lysine coated culture wells in a defined, serum-free medium (N^2, consisting of a 1:1 mixture of F12 and DMEM containing insulin (10 ng/ml), transferrin (100 μg/ml), putrescine (100 μM), progesterone (20 nM), selenium (30 nM) glucose (6 mg/ml), and bovine serum albumin (1 mg/ml)). After 24 hours in vitro, co-cultures were initiated by directly plating 2.5−5×10^4 C17.2-derived cells into the primary cultures; all ages of cultures given use this point as 0 DIV. […] Purified Type 1 astrocytes were obtained from mixed glial cultures derived from various regions of P1 rats according to a standard protocol (McCarthy, K. D. et al. J. Cell Biol. 85, 890-902 (1980)). After replating into 6- or 12-well plates, astrocytes were grown to confluency in serum-containing media and changed to N2 medium. After 3-5 DIV, co-cultures were initiated in fresh N2 as described above. All factors were added once, at the initiation of co-culture (concentrations are noted in the Results and Discussion), with the exception of 5-bromodeoxyuridine (BrdU), which was added 4-6 hours prior to fixation. Cultures were maintained in a humidified 5% CO2, 95% air incubator at 37 C and fixed after given time periods with 4% paraformaldehyde for 45 minutes for immunocytochemical analysis.
Fixed cultures were incubated with one of the following antibodies, diluted appropriately in phosphate-buffered saline (PBS) containing 1% bovine serum albumin and 0.3% Triton-X 100: mouse anti-BrdU, 1:50 (DAKO, Denmark), mouse anti-β-tubulin, Type III (TuJ1), 1:250 (Sigma), mouse anti-TH, 1:1000 (Incstar, USA), rabbit anti-β-galactosidase, 1:250 (Cappel, USA) rabbit anti-GFAP, 1:500 (DAKO, Denmark), rabbit anti-AHD-2, 1:4000. Incubations were either carried out at 4° C. overnight, or at room temperature for 1 hour. Both processes yielded similar results. After washing, cultures were incubated for 1-3 hr with appropriate secondary antibodies (biotinylated horse-anti-mouse IgG or goat-anti-rabbit IgG, Vector, USA), 1:100, in the same dilution buffer. […] Quantitative immunocytochemical data represent means and standard errors from 100-500 cells counted in each of 3-6 separate wells from 2-4 experiments. For quantitation of TH expression in co-cultures of primary and C-17.2-derived cells, TH was visualized with the brightfield AEC substrate, while β-gal was assessed using FITC, thus all data expressed as “% TH+” represents the number of TH+/β-gal+divided by total β-gal positive cells. […]

[2] = tested on: Nurr1 over-expressing C17.2 clones; experiment: Treatment of Nurr1 clones with trophic factors, mitogens, cytokines and other agents; TH immunoreactivity; type: cell-based, mouse; settings: Nurr1 clones without co-culture; factors alone or combined
Text: C17.2 cells were cotransfected with a CMX-Nurr1 expression vector (Perlmann, T. et al. Genes Dev. 9, 769-782 (1995)) and PGK-puromycin resistance plasmids (Nurr1 clones) or a PGK-puromycin alone (mock clones). For reporter assays, C17.2 parental cells were transfected with the Nurr1 expression vector, the reporter plasmid (NGFIB-binding response element (NBRE) triplet upstream of TK minimal promoter fused to firefly luciferase) and a pRSV-alkaline phosphatase plasmid at a 2:1:2 ratio.
as §1, with “Cultures were maintained in a humidified 5% CO2, 95% air incubator at 37 C and fixed after given time periods with 4% paraformaldehyde for 45 minutes for immunocytochemical analysis.” left out
Fixed cultures were incubated with one of the following antibodies, diluted appropriately in phosphate-buffered saline (PBS) containing 1% bovine serum albumin and 0.3% Triton-X 100: mouse anti-BrdU, 1:50 (DAKO, Denmark), mouse anti-β-tubulin, Type III (TuJ1), 1:250 (Sigma), mouse anti-TH, 1:1000 (Incstar, USA), rabbit anti-β-galactosidase, 1:250 (Cappel, USA) rabbit anti-GFAP, 1:500 (DAKO, Denmark), rabbit anti-AHD-2, 1:4000. […] Quantitative immunocytochemical data represent means and standard errors from 100-500 cells counted in each of 3-6 separate wells from 2-4 experiments. For quantitation of TH expression in co-cultures of primary and C-17.2-derived cells, TH was visualized with the brightfield AEC substrate, while β-gal was assessed using FITC, thus all data expressed as “% TH+” represents the number of TH+/β-gal+divided by total β-gal positive cells.

B1: BDNF: Brain Derived Neurotrophic Factor (protein, UniProt P23560 19-247, looked up)
Neurotrophic factor BDNF …: APMKEANIRGQGGLAYPGVRTHGTLESVNGPKAGSRGLTSLADTFEHVIEELLDEDQKVRPNEENNKDADLYTSRVMLSSQVPLEPPLLFLLEEYKNYLDAANMSMRVRRHSDPARRGELSVCDSISEWVTAADKKTAVDMSGGTVTVLEKVPVSKGQLKQYFYETKCNPMGYTKEGCRGIDKRHWNSQCRTTQSYVRALTMDSKKRIGWRFIRIDTSCVCTLTIKRGR
neuritogenesis and/or hypertrophy [1]: induced neuritogenesis and/or hypertrophy
induction of TH expression [2]: None of these factors induced TH expression in any of the clones

B2: GDNF: Glial cell line-Derived Neurotrophic Factor (protein, UniProt P39905 78-211, looked up)
Glial cell line-derived …: SPDKQMAVLPRRERNRQAAAANPENSRGKGRRGQRGKNRGCVLTAIHLNVTDLGLGYETKEELIFRYCSGSCDAAETTYDKILKNLSRNRRLVSDKVGQACCRPIAFDDDLSFLDDNLVYHILRKHSAKRCGCI
neuritogenesis and/or hypertrophy [1]: induced neuritogenesis and/or hypertrophy
induction of TH expression [2]: None of these factors induced TH expression in any of the clones

B3: NT-3: neurotrophin-3 (protein, UniProt P20783 139-257, looked up)
Neurotrophin-3: YAEHKSHRGEYSVCDSESLWVTDKSSAIDIRGHQVTVLGEIKTGNSPVKQYFYETRCKEARPVKNGCRGIDDKHWNSQCKTSQTYVRALTSENNKLVGWRWIRIDTSCVCALSRKIGRT
number of TH+ cells in the culture ([1]; compared to N2 control, NT-3 30 ng/ml): dramatically increased the number of TH+ cells
induction of TH expression [2]: None of these factors induced TH expression in any of the clones

B4: CNTF: Ciliary Neurotrophic Factor (protein, UniProt P26441 1-200, looked up)
Ciliary neurotrophic factor: MAFTEHSPLTPHRRDLCSRSIWLARKIRSDLTALTESYVKHQGLNKNINLDSADGMPVASTDQWSELTEAERLQENLQAYRTFHVLLARLLEDQQVHFTPTEGDFHQAIHTLLLQVAAFAYQIEELMILLEYKIPRNEADGMPINVGDGGLFEKKLWGLKVLQELSQWTVRSIHDLRFISSHQTGIPARGSHYIANNKKM
neuritogenesis and/or hypertrophy [1]: induced neuritogenesis and/or hypertrophy
induction of TH expression [2]: None of these factors induced TH expression in any of the clones

Source: US7465582B1, “Nurr-1 induction of a dopaminergic neuronal fate in a neural stem cell or neural progenitor cell in vitro” (Neuro Therapeutics AB, priority 2000, dated 2008)
